T1: human CEACAM6 on 293T cells (293T-huCEACAM6 cells) (human, UniProt P40199 35-320)
T1 construct: whole, on cells
T1 sequence (looked up): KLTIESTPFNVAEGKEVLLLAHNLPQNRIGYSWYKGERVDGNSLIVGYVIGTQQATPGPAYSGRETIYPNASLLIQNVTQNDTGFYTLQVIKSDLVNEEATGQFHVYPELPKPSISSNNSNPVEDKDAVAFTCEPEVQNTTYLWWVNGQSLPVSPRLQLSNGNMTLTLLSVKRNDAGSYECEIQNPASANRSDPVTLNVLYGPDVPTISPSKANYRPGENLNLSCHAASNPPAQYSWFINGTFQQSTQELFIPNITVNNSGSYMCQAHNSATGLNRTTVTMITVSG

T2: recombinant human CEACAM6 Fc-tag protein (human, UniProt P40199 35-320, limits assumed)
T2 construct: also called huCEACAM6 (Octet); not shown: Fc tag
T2 sequence (looked up): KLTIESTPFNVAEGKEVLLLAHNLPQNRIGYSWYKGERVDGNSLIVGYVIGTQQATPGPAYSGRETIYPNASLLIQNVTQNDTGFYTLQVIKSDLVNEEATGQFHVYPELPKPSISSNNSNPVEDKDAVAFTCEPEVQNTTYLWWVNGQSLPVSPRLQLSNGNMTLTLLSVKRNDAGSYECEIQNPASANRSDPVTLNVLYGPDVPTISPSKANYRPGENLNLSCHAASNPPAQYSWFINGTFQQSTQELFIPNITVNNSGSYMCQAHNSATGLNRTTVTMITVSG

T3: human CEACAM3 protein (human, UniProt P40198 35-155)
T3 construct: Bought protein; also called huCEACAM3
T3 sequence (looked up): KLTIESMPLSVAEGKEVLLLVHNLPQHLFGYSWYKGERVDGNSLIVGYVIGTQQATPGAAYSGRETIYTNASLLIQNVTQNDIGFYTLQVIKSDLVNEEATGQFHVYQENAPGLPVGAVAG

T4: human CEACAM1 protein (human, UniProt P13688 35-428)
T4 construct: also called huCEACAM1
T4 sequence (looked up): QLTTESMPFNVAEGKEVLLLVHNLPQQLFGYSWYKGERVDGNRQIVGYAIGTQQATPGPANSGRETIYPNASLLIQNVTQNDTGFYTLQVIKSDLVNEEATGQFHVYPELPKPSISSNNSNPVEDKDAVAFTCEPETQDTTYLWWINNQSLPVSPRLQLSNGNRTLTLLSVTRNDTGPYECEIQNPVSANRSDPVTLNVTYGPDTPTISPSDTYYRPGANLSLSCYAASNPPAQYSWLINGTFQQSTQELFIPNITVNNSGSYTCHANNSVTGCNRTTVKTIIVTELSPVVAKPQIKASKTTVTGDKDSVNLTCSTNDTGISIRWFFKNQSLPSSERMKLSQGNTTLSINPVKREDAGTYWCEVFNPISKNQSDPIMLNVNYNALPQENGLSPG

T5: human CEACAM8 protein (human, UniProt P31997 35-320)
T5 construct: Bought protein; also called huCEACAM8
T5 sequence (looked up): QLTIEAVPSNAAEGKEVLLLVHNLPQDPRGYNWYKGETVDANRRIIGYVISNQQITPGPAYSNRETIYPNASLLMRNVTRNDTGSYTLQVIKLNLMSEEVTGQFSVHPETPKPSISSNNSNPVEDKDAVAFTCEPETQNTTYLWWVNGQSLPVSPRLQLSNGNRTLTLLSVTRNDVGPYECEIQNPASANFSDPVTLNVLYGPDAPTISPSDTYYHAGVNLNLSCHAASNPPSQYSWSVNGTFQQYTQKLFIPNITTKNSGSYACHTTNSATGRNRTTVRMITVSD

T6: human CEACAM6 protein (human, UniProt P40199 35-320)
T6 construct: also called huCEACAM6
T6 sequence (looked up): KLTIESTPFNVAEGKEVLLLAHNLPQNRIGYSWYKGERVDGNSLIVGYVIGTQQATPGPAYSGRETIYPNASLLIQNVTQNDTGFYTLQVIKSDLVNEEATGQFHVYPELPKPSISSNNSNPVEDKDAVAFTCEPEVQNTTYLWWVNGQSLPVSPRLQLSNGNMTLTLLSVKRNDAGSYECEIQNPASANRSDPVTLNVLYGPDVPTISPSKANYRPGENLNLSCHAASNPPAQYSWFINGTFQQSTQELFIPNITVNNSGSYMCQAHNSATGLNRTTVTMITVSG

T7: human CEACAM5 protein (human, UniProt P06731 35-685)
T7 construct: also called huCEACAM5
T7 sequence (looked up): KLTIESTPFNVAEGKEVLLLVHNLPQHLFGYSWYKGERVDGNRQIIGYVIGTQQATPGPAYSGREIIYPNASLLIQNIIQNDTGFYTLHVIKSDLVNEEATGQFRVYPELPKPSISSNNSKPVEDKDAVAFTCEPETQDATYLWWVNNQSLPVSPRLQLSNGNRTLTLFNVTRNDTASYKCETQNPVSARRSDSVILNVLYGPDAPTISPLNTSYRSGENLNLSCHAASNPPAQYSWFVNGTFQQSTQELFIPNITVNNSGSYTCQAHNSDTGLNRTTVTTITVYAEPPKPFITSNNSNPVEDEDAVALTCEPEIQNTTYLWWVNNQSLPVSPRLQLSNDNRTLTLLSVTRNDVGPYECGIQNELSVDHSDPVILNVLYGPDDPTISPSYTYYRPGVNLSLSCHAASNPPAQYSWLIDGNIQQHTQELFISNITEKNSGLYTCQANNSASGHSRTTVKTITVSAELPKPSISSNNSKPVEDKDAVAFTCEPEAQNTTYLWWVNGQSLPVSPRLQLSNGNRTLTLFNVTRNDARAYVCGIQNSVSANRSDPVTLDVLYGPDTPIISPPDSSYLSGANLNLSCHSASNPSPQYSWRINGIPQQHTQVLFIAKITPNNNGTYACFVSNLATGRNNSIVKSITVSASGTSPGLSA


Legend:
[1] = target: T1, human CEACAM6 on 293T cells …; experiment: flow cytometry on 293T-huCEACAM6 cells
Protocol: (§1) Binding of recombinant anti-CEACAM5/6 dual-binding antibodies against human or cynomolgus CEACAM5 or CEACAM6 stable cells were detected by flow cytometry. […] Anti-CEACAM5/6 dual-binding antibodies were incubated with the stable cell lines. Anti-CEACAM5/6 dual-binding antibodies were serially diluted in staining buffer (PBS containing 2% FBS). 50 μL of diluted antibody solution was added to 50 μL of cell suspension containing 1-2×10⁵ cells and incubated at 4° C. for 1 hour. […] After 1-hour incubation at 4° C., cells were washed twice and run on a flow cytometer. […] The results were shown in FIGS. 8-10 and Tables 6 below.

[2] = target: T8, cynomolgus CEACAM5 on CHO-K1 cells (CHOK1-cyno CEACAM5 cells) (cynomolgus monkey); experiment: flow cytometry on CHOK1-cyno CEACAM5 cells
T8 construct: whole, on cells; also called CHOK1-cynoCECAM5
Protocol: as §1

[3] = target: T2, recombinant human CEACAM6 Fc-tag protein; experiment: Octet (BLI), antibody on AHC sensor, antigen in solution
Protocol: Binding kinetics of recombinant anti-CEACAM5/6 antibodies to CEACAM5 and CEACAM6 were analyzed by Octet. In Octet analysis, recombinant human CEACAM5 Fc-tag protein (#Uniprot P06731) or CEACAM6 Fc-tag protein (Uniprot P40199) was serially diluted with 1×kinetic buffer (Fortebio). Anti-CEACAM5/6 dual-binding antibodies were diluted to 5 μg/mL. Then diluted antibodies, antigen and regeneration buffer (10 mM glycine pH 1.75) were added to 96-well plates (Greiner). Rate constants for association and dissociation were measured using AHC sensor (Fortebio). The sensor surface was regenerated after each binding experiment with regeneration buffer. The traces were processed using ForteBio Data Analysis Software (version 8.0, Pall ForteBio, CA, USA).

cyno CEACAM5 protein = target: T9, cyno CEACAM5 protein (cynomolgus monkey); experiment: ELISA, antigen coated on plate
T9 construct: also called cynomolgus CEACAM5
From the text: (§2) Binding of recombinant anti-CEACAM5/6 dual-binding monoclonal antibodies against human and cynomolgus CEACAM5, and human CEACAM6 (Uniprot P40199), human CEACAM 1, 3 (NP_001806.2, Sino Biological 11933-H08H) and 8 (NP_001807.2, Acro Bio CE8-H5224) were detected by ELISA. Anti-CEACAM5/6 dual-antibodies were serially diluted in staining buffer (PBS containing 2% FBS). […] ELISA was used to test the binding between antibody containing supernatant or purified antibodies and the antigen. Briefly, the antigens were coated on a 96-well high binding plate overnight at 4° C. The plate was washed with PBST three times, incubated with blocking buffer (2% Bovine Serum Albumin) for one hour at 37° C., washed with PBST three times and incubated with antibody containing supernatant or purified antibodies at desired dilutions or concentrations for one hour at 37° C. A secondary antibody, anti-human Fc-HRP (Jackson Laboratory, 109-035-097) was used for detection of the targeted antibody. TMB and stopping solution were used for detection of HRP signal. The HRP signal was read on a SPECTRAMAX plate reader.

human CEACAM3 protein = target: T3, human CEACAM3 protein; experiment: ELISA, antigen coated on plate
From the text: as §2

human CEACAM1 protein = target: T4, human CEACAM1 protein; experiment: ELISA, antigen coated on plate
From the text: as §2

human CEACAM8 protein = target: T5, human CEACAM8 protein; experiment: ELISA, antigen coated on plate
From the text: as §2

human CEACAM6 protein = target: T6, human CEACAM6 protein; experiment: ELISA, antigen coated on plate
From the text: as §2

[4] = target: T1, human CEACAM6 on 293T cells …; experiment: cell-based or functional assay
[5] = target: T1, human CEACAM6 on 293T cells …; experiment: flow cytometry on 293T-huCEACAM6 cells with against without 100 nM soluble CEACAM6
human CEACAM5 protein = target: T7, human CEACAM5 protein; experiment: ELISA, antigen coated on plate
From the text: as §2

[6] = target: T1, human CEACAM6 on 293T cells …; experiment: flow cytometry on 293T-huCEACAM6 cells, Alexa Fluor 488 anti-human IgG, MFI
Protocol: as §1

Row | binding result [1] | EC50 [2] [nM] | binding result [3] | EC50 (cyno CEACAM5 protein) [nM] | binding result (human CEACAM3 protein) | binding result (human CEACAM1 protein) | binding result (human CEACAM8 protein) | binding result (human CEACAM6 protein) | Internalization of pHAb-dye-labelled antibody, MFI (37° C.-4° C.)/DAR [4] | fold change of EC50 at the presence of 100 nM soluble protein [5] [fold] | binding result (human CEACAM5 protein) | EC50 (human CEACAM6 protein) [nM] | EC50 (read off the curve) [6] [nM] | Binder
1 | no binding | 33.4 | no binding | 0.01 | no binding | no binding | no binding | no binding | 1260 |  |  |  |  | PR303561 (Tusamitamab) (antibody, human IgG1, kappa, V domains shown, also called PR003561; SAR408377) VH: EVQLQESGPGLVKPGGSLSLSCAASGFVFSSYDMSWVRQTPERGLEWVAYISSGGGITYAPSTVKGRFTVSRDNAKNTLYLQMNSLTSEDTAVYYCAAHYFGSSGPFAYWGQGTLVTVSS VL: DIQMTQSPASLSASVGDRVTITCRASENIFSYLAWYQQKPGKSPKLLVYNTRTLAEGVPSRFSGSGSGTDFSLTISSLQPEDFATYYCQHHYGTPFTFGSGTKLEIKR
2 |  |  |  |  | no binding | no binding | no binding |  |  | 7.3 | no binding | 0.01 | ~0.6 | PR303563 (Tinurilimab) (antibody, human IgG2, kappa, V domains shown, also called BAY-1834942) VH: QVTLRESGPALVKPTQTLTLTCTFSGFSLSTYGIGVGWIRQPPGKALEWLAHIWWNDNKYYSTSLKTRLTISKDTSKNQVVLTMTNMDPVDTATYYCARISLPYFDYWGQGTTLTVSS VL: DIQLTQSPSFLSASVGDRVTITCKASQNVGTAVAWYQQKPGKAPKLLIYSASNRYTGVPSRFSGSGSGTEFTLTISSLQPEDFATYYCQQYSSYPLTFGGGTKVEIKR

— US20260258125A1 (NONA BIOSCIENCES SUZHOU, published 2026)
